Where only a bound is given, the exact number is not on record here.

The target of the data set is NbMTA (Nicotiana benthamiana) (UniProt A0A1J6JV69). Nature of the data set: BLI. As to conditions: Octet RED 96, Super Streptavidin sensors, 100 nM biotinylated ssRNA loaded, NbMTA (50 nM stated; serial dilutions), equilibration in 0.01 M saline, PBS ….
The term Kd denotes the equilibrium constant for the complex coming apart. “GGGAAAAAUAAAUCCAAAAGAAUUCAAGCCUUGAAGUUUCGCCAUGCUCGUGACAAAAGGGCUGGUUUUGAAAUUGACAACAAUGAUGACACAAUAGAGGAAUUCUUUGGAUCUGCAUACAGGAAAAAGGGAAAAGGUAAAGGUACCACUGUUGGUAUGGGCAAGUCAAGCAGAAGGUUUGUUAA [PVY NIa peak 2-1 probe]” returned a Kd greater than 30 µM. “UCUGGGACACAUACUGUGCCGAGAAUCAAGGCUAUCACGUCCAAAAUGAGAAUGCCCAAAAGCAAGGGAGCAACCGUGCUAAACUUAGAACACUUGCUUGAGUAUGCUCCACAACAAAUUGAUAUUUCAAAUACUCGGGCAACUCAAUCACA [PVY CP peak 3 probe]” registered a Kd of 3.1 µM. In the case of “UGCAGUUCGUUCAUCACCAAGCUACGACGUCACUUGCAAAGGAUCUCAAGUUGAAGGGGACUUGGAAGAAGUCAUUAGUGGCCAAAGACUUGAUCAUAGCAGGCGCUGUUGCAAUUGGUGGAAUAGGACUCAUAUAUAGUUGGUUCACACAAUCAGUUGAGACUGUGUCUCACCAA [PVY 6K2 peak 2-1 probe]”, the Kd is greater than 30 µM.

(Values after PMC12902261.)
